Laboratory results reported in patent US20160213760A1.

Target: human epidermal growth factor 2 (HER2)/neu receptor (human) (UniProt P04626)
Test: cell-based or functional assay

“protein conjugate H43 (ANG4043; trastuzumab conjugated to Angiopep-2) (antibody)” gave an IC50 of BT-474 cell proliferation (tritiated thymidine incorporation after 5-day treatment) of 3.16 nM.
